Reference: patent US12569569B2, “Nano-delivery system and therapeutic and diagnostic use thereof” (NANOCARRY THERAPEUTICS LTD., priority 2020, dated 2026)

Assay: ICP-MS quantification of Au and Pt in mice brains after IV cisplatin+insulin-GNPs
Format: in vivo, Male BALB/c mice
Conditions: 8 hours post-administration
Protocol: Male BALB/c mice aged 6-7 weeks were administered intravenously through the tail vein with 200 μl of cisplatin+insulin-GNPs (approximately 0.1 mg of cisplatin according to ICP-MS measurement of Pt concentration) (n=3), or with equivalent dose of free Cisplatin (100 μl, 1 mg/ml) (n=3). Mice were sacrificed 8 hours post-administration. The mice underwent perfusion using 20 ml saline to remove all the particles residing within the blood vessels.
After sacrifice and perfusion, mice brains were extracted and weighted followed by ICP-MS analysis to quantify the amounts of Au and Pt within the brain.

cisplatin+insulin-GNPs: 20 nm GNPs with mPEG-SH 5 kDa, PEG 1 kDa conjugated to cisplatin, PEG 5 kDa conjugated to insulin (60:20:20)
Au and Pt within the brain (ICP-MS) (IV 200 μl, after perfusion): both gold and platin were found within the brains
Amount of Pt within the brain compared to equivalent dose of free cisplatin (IV): significantly higher
